Experimental findings from paper PMC7060279 are described below.

The target of test [1] is integrin αvβ3 protein (UniProt P06756).
Test [2] shares this target. The experiment in a line: SPR; Biacore T-200; TLR2, TLR4 and integrin αvβ3 immobilised on a CM5 chip by amine coupling; CCN1 as analyte at 25 µl per min, 25 °C, phosphate buffer with 350 mM NaCl, 0.5 mM CaCl2, 0.5 mM MgCl2, 10 µg per ml BSA; global fit to 1:1 Langmuir model, KD = kd/ka. Background: Surface plasmon resonance follows binding to a sensor surface in real time, without labels.

Sequence of integrin αvβ3 protein (P06756 31-1048, chain 1 of 2): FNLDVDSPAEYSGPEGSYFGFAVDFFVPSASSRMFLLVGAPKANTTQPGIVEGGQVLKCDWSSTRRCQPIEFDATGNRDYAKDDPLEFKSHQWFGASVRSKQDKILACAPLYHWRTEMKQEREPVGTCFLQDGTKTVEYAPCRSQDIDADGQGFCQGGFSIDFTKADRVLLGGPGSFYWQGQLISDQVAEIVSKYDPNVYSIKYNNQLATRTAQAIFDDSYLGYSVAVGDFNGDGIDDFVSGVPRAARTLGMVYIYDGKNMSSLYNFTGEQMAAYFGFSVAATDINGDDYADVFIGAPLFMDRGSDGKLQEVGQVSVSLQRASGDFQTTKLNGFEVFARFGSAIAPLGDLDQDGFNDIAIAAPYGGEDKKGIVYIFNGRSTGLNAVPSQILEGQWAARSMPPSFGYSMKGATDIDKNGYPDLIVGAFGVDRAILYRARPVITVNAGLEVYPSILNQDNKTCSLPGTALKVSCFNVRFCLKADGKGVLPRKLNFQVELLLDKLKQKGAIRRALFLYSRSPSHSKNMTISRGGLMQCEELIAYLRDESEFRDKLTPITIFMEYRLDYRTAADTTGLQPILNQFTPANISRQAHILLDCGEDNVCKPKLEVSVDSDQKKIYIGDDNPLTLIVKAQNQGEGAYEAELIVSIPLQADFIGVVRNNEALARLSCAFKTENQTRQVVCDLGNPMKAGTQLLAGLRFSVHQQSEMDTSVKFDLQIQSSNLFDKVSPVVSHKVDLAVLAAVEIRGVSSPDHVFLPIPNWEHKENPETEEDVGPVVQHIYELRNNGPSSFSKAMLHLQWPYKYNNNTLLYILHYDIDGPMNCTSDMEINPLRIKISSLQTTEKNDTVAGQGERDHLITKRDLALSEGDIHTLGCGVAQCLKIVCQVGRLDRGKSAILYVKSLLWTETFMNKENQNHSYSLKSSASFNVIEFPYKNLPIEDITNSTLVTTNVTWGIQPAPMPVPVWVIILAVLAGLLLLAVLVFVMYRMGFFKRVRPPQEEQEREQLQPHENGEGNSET
Sequence of integrin αvβ3 protein (P05106 27-718, chain 2 of 2, further chain): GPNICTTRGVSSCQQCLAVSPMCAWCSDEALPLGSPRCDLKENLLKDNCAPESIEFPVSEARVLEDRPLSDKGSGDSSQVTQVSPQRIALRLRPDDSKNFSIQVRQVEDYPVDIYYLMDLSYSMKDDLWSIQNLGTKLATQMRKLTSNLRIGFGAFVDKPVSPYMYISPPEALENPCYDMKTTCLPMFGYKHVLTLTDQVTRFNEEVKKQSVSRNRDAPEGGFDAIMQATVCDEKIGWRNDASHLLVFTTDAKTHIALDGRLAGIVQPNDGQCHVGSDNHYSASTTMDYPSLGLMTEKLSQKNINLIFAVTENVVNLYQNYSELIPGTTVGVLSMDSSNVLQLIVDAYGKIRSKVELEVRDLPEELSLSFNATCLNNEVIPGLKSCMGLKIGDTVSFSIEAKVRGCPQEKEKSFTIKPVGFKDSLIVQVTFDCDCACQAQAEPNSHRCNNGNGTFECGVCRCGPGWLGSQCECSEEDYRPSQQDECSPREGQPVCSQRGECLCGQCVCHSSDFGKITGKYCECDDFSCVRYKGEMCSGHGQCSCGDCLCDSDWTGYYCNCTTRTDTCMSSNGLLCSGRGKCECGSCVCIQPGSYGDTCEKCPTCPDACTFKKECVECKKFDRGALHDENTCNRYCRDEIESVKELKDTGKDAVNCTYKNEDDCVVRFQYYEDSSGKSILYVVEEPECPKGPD

B1: CCN1-WT (recombinant matricellular protein CCN1) (natural protein)
chain: TCPAACHCPLEAPKCAPGVGLVRDGCGCCKVCAKQLNEDCSKTQPCDHTKGLECNFGASSTALKGICRAQSEGRPCEYNSRIYQNGESFQPNCKHQCTCIDGAVGCIPLCPQELSLPNLGCPNPRLVKVSGQCCEEWVCDEDSIKDSLDDQDDLLGLDASEVELTRNNELIAIGKGSSLKRLPVFGTEPRVLFNPLHAHGQKCIVQTTSWSQCSKSCGTGISTRVTNDNPECRLVKETRICEVRPCGQPVYSSLKKGKKCSKTKKSPEPVRFTYAGCSSVKKYRPKYCGSCVDGRCCTPLQTRTVKMRFRCEDGEMFSKNVMMIQSCKCNYNCPHPNEASFRLYSLFNDIHKFRD
In general, Kd refers to the concentration at which binding is half-saturated. Read a low Kd as a tighter complex. B1: the phagocytosis of S. aureus bioparticles by BMDMs pretreated with CCN1 (2 µg per ml); obliterated by cilengitide (1 µM); also enhanced in BM-PMNs and THP.1 macrophages in the test with integrin αvβ3 protein [1] was 5 fold. In the test with integrin αvβ3 protein [2], this molecule had a Kd of 202 nM.
